# Measurements as given in article PMC4335047, “Interaction between the tRNA-Binding and C-Terminal Domains of Yeast Gcn2 Regulates Kinase Activity In Vivo” (PLoS Genetics, 2015).
# T1: GST-CTD (Gcn2 residues 1498–1659) (S. cerevisiae, UniProt P15442 1498-1659)
# T1 construct: Gcn2 of S. cerevisiae, C-terminal domain (CTD), residues 1498-1659; a pGEX vector with the tac promoter points to E. coli; also called GST-GCN2(1498–1659); source: purified GST fusion (P tac, pGEX-5x-1); not shown: GST, N-terminal, kept
# T1 sequence (looked up): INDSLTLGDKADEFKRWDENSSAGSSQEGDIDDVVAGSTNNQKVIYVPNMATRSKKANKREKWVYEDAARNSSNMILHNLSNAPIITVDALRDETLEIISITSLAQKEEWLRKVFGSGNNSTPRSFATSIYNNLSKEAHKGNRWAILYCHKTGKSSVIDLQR
# T2: GST-HisRS (Gcn2 residues 970–1497), wild type (S. cerevisiae, UniProt P15442 970-1497)
# T2 construct: Gcn2 of S. cerevisiae, HisRS-related domain, residues 970-1497; also called WT GST-HisRS; GST-HisRS (970–1497); not shown: GST, N-terminal, kept
# T2 sequence (looked up): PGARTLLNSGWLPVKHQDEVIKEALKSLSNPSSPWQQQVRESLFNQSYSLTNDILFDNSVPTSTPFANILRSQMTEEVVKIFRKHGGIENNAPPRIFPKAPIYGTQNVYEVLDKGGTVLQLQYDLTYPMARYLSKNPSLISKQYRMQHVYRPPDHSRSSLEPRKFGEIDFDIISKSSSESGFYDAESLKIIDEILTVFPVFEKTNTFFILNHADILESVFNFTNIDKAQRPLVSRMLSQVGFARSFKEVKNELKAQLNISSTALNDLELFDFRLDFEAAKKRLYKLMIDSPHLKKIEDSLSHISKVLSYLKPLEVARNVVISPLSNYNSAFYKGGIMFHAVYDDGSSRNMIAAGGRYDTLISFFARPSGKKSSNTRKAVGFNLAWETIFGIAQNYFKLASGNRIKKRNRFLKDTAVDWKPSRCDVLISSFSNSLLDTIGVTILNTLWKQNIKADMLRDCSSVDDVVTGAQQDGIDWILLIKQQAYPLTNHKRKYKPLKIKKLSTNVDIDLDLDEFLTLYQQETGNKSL
# B1: [35S]-HisRS(970–1497) segment of Gcn2 (domain or fragment, S. cerevisiae, UniProt P15442 970-1497, looked up)
# chain: T2 sequence (looked up)
# modifications: [35S]-methionine labeled
# notes: Gcn2 of S. cerevisiae, HisRS-related domain, residues 970-1497; P T7-GCN2 (970–1497) in pGEM-3Z; also called [^35S]-methionine labeled HisRS fragment; [^35S]-HisRS domain fragments; source: in vitro translated (TNT T7 Coupled Reticulocyte Lysate System), partially purified by ammonium sulfate precipitation
# How the values were obtained:
# Test in all cases: pull-down; purified GST fusions (5 μg) immobilised on glutathione-Sepharose 4B beads; in vitro translated [35S]-HisRS(970–1497), partially purified by ammonium sulfate precipitation; buffer A, 4°C, 2 h; without or with increasing tRNA^Phe or a model mRNA; fluorography
# Conditions in all cases: one partner purified
# [1] = target: T1, GST-CTD (Gcn2 residues 1498–1659)
# [2] = target: T2, GST-HisRS (Gcn2 residues 970–1497), …
# [3] = target: T3, GST-KD (Gcn2 residues 568–998) (S. cerevisiae, UniProt P15442 568-998)
# T3 construct: Gcn2 of S. cerevisiae, kinase domain (KD), residues 568-998; a pGEX vector with the tac promoter points to E. coli; also called GST-GCN2(568–998); source: purified GST fusion (P tac, pGEX-5x-1); not shown: GST, N-terminal, kept
# T3 sequence (P15442 568-998): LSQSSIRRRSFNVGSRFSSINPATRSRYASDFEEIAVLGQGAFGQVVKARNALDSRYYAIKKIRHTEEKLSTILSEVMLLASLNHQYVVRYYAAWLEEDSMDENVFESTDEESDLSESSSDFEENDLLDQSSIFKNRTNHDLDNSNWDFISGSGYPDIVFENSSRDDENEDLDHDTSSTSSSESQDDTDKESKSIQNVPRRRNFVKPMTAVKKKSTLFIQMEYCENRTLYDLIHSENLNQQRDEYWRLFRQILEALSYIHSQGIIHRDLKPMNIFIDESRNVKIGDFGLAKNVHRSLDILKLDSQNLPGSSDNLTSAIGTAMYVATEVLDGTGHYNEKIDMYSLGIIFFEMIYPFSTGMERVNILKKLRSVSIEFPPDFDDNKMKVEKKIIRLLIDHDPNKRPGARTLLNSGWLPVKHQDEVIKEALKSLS
binder,measurement,setting,value
B1,fold reduction of the pull-down on addition of tRNA^Phe,[1],~5.4 fold
same,fold reduction of the pull-down on addition of tRNA^Phe,[2],~2.1 fold
same,fold reduction of the pull-down on addition of tRNA^Phe,[3],~1.8 fold
